Legend:
azocasein [1] = assay: Effects of salts on the activity of the protease; type: biochemical; conditions: for relative activity: 37° C., 4 hours
Procedure: (§1) Enzyme activity of the protease was measured according to the method described by Braun & Shmitz (Braun, V. & Schmitz, G., Arch. Microbiol. 124, 55-61, 1980). A substrate solution was prepared by dissolving 0.24 g of azocasein in 10 ml of 50 mM phosphate buffer (pH 7.5). The 300 □ of the substrate solution was mixed with 100 □ of bacterial culture solution and reacted at 37° C. for 30 minutes. Then, 300 □ of 10% trichloride acetate was added to the reaction solution and incubated at ambient temperature for 1 hour. The reaction solution was centrifuged at 7,000 rpm until pellet and supernatant was separated substantially. After adding 30 0 of 10% sodium hydroxide (NaOH) to the supernatant, the absorbance was measured at 420 nm. The enzymatic titer was defined as 1 unit by the 1.0 fold increment of absorbance value.
In order to examine effects of salts on the activity of protease, the relative enzyme activity was measured at 37° C. for 4 hours in the presence of various concentrations of sodium chloride solution ranging from 0 to 1700 mM. The relative activity was measured according to the method described in Example 3(1). For comparison, the protease derived from Serratia marcescens SM6 was used as a control.

azocasein [2] = assay: Effect of heat on the activity and stability of the protease; type: biochemical
Procedure: as §1
In order to examine the effect of heat on the activity and stability of the protease, the relative enzyme activity was measured at temperatures ranging from 4° C. to 80° C. The measurement of the activity was performed according to the method described in Example 3(1).

[3] = Protein eluted from raw skin (leather deliming application); conditions: 0.5% of protease
Procedure: A 20 g of raw skin finely cut into pieces of suitable size and 14 ml of distilled water was mixed in a 50 ml test tube. Then, 0.5% sodium bisulfite and 0.5% ammonium sulfate on the basis of the weight of skin was added thereto and the mixture was incubated for 15 minutes at 26° C. Subsequently, 0.2% of detergent and 0.5% of deliming agent was added thereto and waited for 30 minutes and 1 hour, respectively, before measuring the amount of protein eluted from the skin. In the presence of the 0.5% of protease, the protein eluted amounted to 1054 mg/ml and 1062 mg/ml after 30 minutes and 60 minutes, respectively. In the absence of the protease, the protein eluted amounted to 304.5 mg/ml and 329.5 mg/ml after 30 minute and 60 minutes, respectively.

azocasein [4] = assay: Effect of pH on the activity and stability of the protease; type: biochemical; conditions: for relative activity: 30 minutes
Procedure: as §1
In order to examine the pH-dependence of the protease of the invention, the inventors prepared various substrate solution with different pH. The each substrate solution was buffered with citrate-phosphate(pH 3.0 to 7.0), sodium phosphate(pH 7.0 to 9.0), Tris-HCl(pH 7.0 to 10.0), and glysine-caustic soda(pH 9.0 to 12.0), respectively. The relative protease activity was measured after mixing enzyme with each of the above substrate solution at 37° C. for 30 minutes. The measurement of the relative protease activity was followed by the method described in Example 3(1).

[5] = test system: albumin, casein, collagen, elastin and hemoglobin; assay: Activity of the protease on various substrates; type: biochemical; conditions: all the other substrates including hemoglobin
Procedure: In order to examine the degrading ability of the enzyme against various substrates, the enzyme reactions were performed on substrates such as albumin, casein, collagen, elastin and hemoglobin. […] In 24 hour reaction, all the other substrates including hemoglobin achieved at least 45.

B1: protease: zinc-binding metalloprotease from Aranicola proteolyticus HY-3, amino acid sequence SEQ ID NO. 1, apparent molecular weight about 51.5 kDa (protein, listed as Aranicola proteolyticus)
chain: MQSTKKAIEITESSLAAASSAYNAVDDLLHYHERGNGIQVNGKDSFSTEQAGLFITRENQTWNGYKVFGQPVKLTFSFPDYKFSSTNVAGDTGLSKFSAEQQQQAKLSLQSWSDVANITFTEVGAGQKANITFGNYSQDRPGHYDYDTQAYAFLPNTIYQGQNLGGQTWYNVNQSNVKHPASEDYGRQTFTHEIGHALGLSHPGDYNAGEGNPTYRDASYAEDTREFSLMSYWSETNTGGDNGGHYAAAPLLDDISAIQHLYGANQTTRTGDTVYGFNSNTGRDFLSTTSNPQKVIFAAWDAGGNDTFDFSGYTANQRINLNEKSFSDVGGLKGNVSIAAGVTIENAIGGSGNDVIVGNAANNVLKGGAGNDVLFGGGGADELWGGAGKDTFVFSAVSDSAPGASDWIKDFQKGIDKIDLSFFNQGAQGGDQIHFVDHFSGAAGEALLSYNASNNVSDLALNIGGHQAPDILVKIVGQVDVATDFIV
modifications: BINDING (192) Zn binding site
notes: 1, apparent molecular weight about 51.5 kDa
- activity under high salt concentrations (azocasein [1]; high salt concentrations): retains high activity
- relative activity (azocasein [1]; salt concentration 0 mM NaCl): 100%
- relative activity (azocasein [1]; salt concentration 170 mM NaCl): 134%
- relative activity (azocasein [1]; salt concentration 340 mM NaCl): 173%
- relative activity (azocasein [1]; salt concentration 510 mM NaCl): 200%
- relative activity (azocasein [1]; salt concentration 680 mM NaCl): 215%
- relative activity (azocasein [1]; salt concentration 1020 mM NaCl): 203%
- relative activity (azocasein [1]; salt concentration 1360 mM NaCl): 196%
- relative activity (azocasein [1]; salt concentration 1700 mM NaCl): 155%
- activity maintained at low temperature (azocasein [2]; 4° C. to 15° C., relative to maximum activity): about a half of the maximum activity
- temperature of maximum activity (azocasein [2]; measured from 4° C. to 80° C.): 37 °C
- relative activity (azocasein [2]; temperature 4 ° C.): 43%
- relative activity (azocasein [2]; temperature 10 ° C.): 45%
- relative activity (azocasein [2]; temperature 15 ° C.): 50%
- relative activity (azocasein [2]; temperature 20 ° C.): 76%
- relative activity (azocasein [2]; temperature 25 ° C.): 81%
- relative activity (azocasein [2]; temperature 30 ° C.): 93%
- relative activity (azocasein [2]; temperature 37 ° C.): 100%
- relative activity (azocasein [2]; temperature 45 ° C.): 28%
- relative activity (azocasein [2]; temperature 50 ° C.): 22%
- relative activity (azocasein [2]; temperature 60 ° C.): 20%
- relative activity (azocasein [2]; temperature 70 ° C.): 14%
- relative activity (azocasein [2]; temperature 80 ° C.): 3%
- Ea value (hydrolysis of azocasein), activation energy in Arrenius plot (azocasein [2]; temperatures between 4° C. and 37° C.): 2.43 kcal/mol
- relative activity (azocasein [2]; temperatures between 20° C. to 40° C.): at least 75%
- protein eluted from the skin ([3]; after 30 minutes): 1050 µg/mL
- protein eluted from the skin ([3]; after 60 minutes): 1060 µg/mL
- pH of maximum activity (azocasein [4]; azocasein substrate): 8.0
- relative activity (azocasein [4]; pH 3.0, 37° C.): 43%
- relative activity (azocasein [4]; pH 4.0, 37° C.): 66%
- relative activity (azocasein [4]; pH 5.0, 37° C.): 73%
- relative activity (azocasein [4]; pH 5.5, 37° C.): 77%
- relative activity (azocasein [4]; pH 6.0, 37° C.): 79%
- relative activity (azocasein [4]; pH 7.0, 37° C.): 81%
- relative activity (azocasein [4]; pH 7.5, 37° C.): 83%
- relative activity (azocasein [4]; pH 8.0, 37° C.): 100%
- relative activity (azocasein [4]; pH 8.5, 37° C.): 99%
- relative activity (azocasein [4]; pH 9.0, 37° C.): 90%
- relative activity (azocasein [4]; pH 9.5, 37° C.): 80%
- relative activity (azocasein [4]; pH 10.0, 37° C.): 78%
- relative activity (azocasein [4]; pH 11.0, 37° C.): 76%
- relative activity (azocasein [4]; pH 12.0, 37° C.): 71%
- activity relative to maximum activity (azocasein [4]; pH of 5.0 to 12.0): at least 70%
- degrading ability (albumin in 24 hour reaction defined as 100) [5]: at least 45

Reference: patent US7297332B2, “Protease, a gene therefor and the use thereof” (Korean Research Institute of Bioscience and Biotechnology, priority 2000, dated 2007)
